Laboratory results: US20220119540A1 (NANJING GENSCRIPT BIOTECH, published 2022)
Positions count from the first letter of the chain named.

T1: OX40 on a functional cell line overexpressing OX40 (UniProt P43489 29-277, limits assumed)
T1 sequence (looked up): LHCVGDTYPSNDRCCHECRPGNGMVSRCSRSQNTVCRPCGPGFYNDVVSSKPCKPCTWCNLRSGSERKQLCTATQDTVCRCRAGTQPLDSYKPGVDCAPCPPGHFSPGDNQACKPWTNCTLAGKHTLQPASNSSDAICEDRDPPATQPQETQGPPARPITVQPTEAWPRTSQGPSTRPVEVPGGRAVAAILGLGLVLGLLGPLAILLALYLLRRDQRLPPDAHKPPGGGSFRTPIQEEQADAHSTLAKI

T2: Recombinant human OX40-His protein (human, UniProt P43489 29-214, limits assumed)
T2 construct: Recombinant antigen protein; also called recombinant human OX-40 protein; human OX-40 protein; not shown: His tag
T2 sequence (looked up): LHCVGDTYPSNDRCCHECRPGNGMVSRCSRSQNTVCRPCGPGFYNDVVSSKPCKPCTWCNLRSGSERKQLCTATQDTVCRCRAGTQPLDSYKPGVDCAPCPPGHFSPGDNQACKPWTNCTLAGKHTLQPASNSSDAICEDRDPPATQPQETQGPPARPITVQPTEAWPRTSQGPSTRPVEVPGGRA

T3: Recombinant monkey OX-40 protein (monkey)
T3 chain: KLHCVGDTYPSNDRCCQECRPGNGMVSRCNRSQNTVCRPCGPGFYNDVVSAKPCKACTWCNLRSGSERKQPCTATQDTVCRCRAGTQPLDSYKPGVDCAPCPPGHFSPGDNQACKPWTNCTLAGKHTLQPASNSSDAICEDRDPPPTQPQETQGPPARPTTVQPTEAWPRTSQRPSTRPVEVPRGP

B1: AH02913 humanized anti-human OX40 monoclonal antibody (recombinant human IgG1/kappa) (antibody, V domains shown)
VH: QVQLVQSGPEVKKPGASVKVSCKASGYTFTDYSMHWVKQAPGQGLEWMGWISTETGEPTYADDFKGRVTITLDTSASTAYMELSSLRSEDTAVYFCARVRPWYLAVWGQGTLVTVSS
VL: DIQMTQSPSSLSASVGDRVTITCRASQDISNYLNWYQQKPGKAVKLLIYYTSRLYSGVPSRFSGSGSGTDYTFTISSLQPEDIATYFCQQANTLPLTFGGGTKLEIK
B2: AH02921 humanized anti-human OX40 monoclonal antibody (recombinant human IgG1/kappa) (antibody, V domains shown)
VH: B1 VH with K38R, V68F, M81L, L83I, A105T
VL: B1 VL with V44P, F73L
B3: AH02916 humanized anti-human OX40 monoclonal antibody (recombinant human IgG1/kappa) (antibody, V domains shown)
VH: B1 VH with P9A, F95Y
VL: B1 VL
B4: AH02919 humanized anti-human OX40 monoclonal antibody (recombinant human IgG1/kappa) (antibody, V domains shown)
VH: B1 VH with P9A, L72R, M81L, L83I
VL: B1 VL with F73L, F87Y
B5: Chimeric antibody (anti-human OX40, recombinant, human IgG1/kappa constant regions) (antibody, V domains shown)
VH: QIQLVQSGPELKKPGETVKISCKASGYTFTDYSMHWVKQAPGKGLKWMGWISTETGEPTYADDFKGRFAFSLETSASTAYLQIKNLKNEDTASYFCARVRPWYLAVWGAGTTVTVSS
VL: DIQMTQTTSSLSASLGDRVTISCRASQDISNYLNWYQQKPDGTVKLLIYYTSRLYSGVPSRFSGSGSGADYSLTVSNLEQEDIATYFCQQANTLPLTFGAGTKLELK
B6: AH02906 humanized anti-human OX40 monoclonal antibody (recombinant human IgG1/kappa) (antibody, V domains shown)
VH: B1 VH with P9A, V68F, F95Y
VL: B1 VL with V44P, F73L
B7: AH02925 humanized anti-human OX40 monoclonal antibody (recombinant human IgG1/kappa) (antibody, V domains shown)
VH: B1 VH with P9A, L72R, M81L, L83I
VL: B1 VL with Y71F, F73L, F87Y
B8: AH02915 humanized anti-human OX40 monoclonal antibody (recombinant human IgG1/kappa) (antibody, V domains shown)
VH: B1 VH with P9A, M81L, L83I, F95Y
VL: B1 VL with V44P, Y71F, F73L
B9: AH02922 humanized anti-human OX40 monoclonal antibody (recombinant human IgG1/kappa) (antibody, V domains shown)
VH: B1 VH with P9A, V20I, K38R, G44R, L72R, F95Y, A105V
VL: B1 VL with V44P, F73L, F87Y
B10: AH02917 humanized anti-human OX40 monoclonal antibody (recombinant human IgG1/kappa) (antibody, V domains shown)
VH: B1 VH with P9A, V68F
VL: B1 VL with Y71F, F73L, F87Y
B11: AH02906, prokaryotically expressed antibody product (back-mutation screening) (Fab, V domains shown)
VH: B1 VH with P9A, V68F, F95Y
VL: B1 VL with V44P, F73L
B12: AH02916, prokaryotically expressed antibody product (back-mutation screening) (Fab, V domains shown)
VH: B1 VH with P9A, F95Y
VL: B1 VL
B13: AH02921, prokaryotically expressed antibody product (back-mutation screening) (Fab, V domains shown)
VH: B1 VH with K38R, V68F, M81L, L83I, A105T
VL: B1 VL with V44P, F73L
B14: AH02925, prokaryotically expressed antibody product (back-mutation screening) (Fab, V domains shown)
VH: B1 VH with P9A, L72R, M81L, L83I
VL: B1 VL with Y71F, F73L, F87Y
B15: AH02917, prokaryotically expressed antibody product (back-mutation screening) (Fab, V domains shown)
VH: B1 VH with P9A, V68F
VL: B1 VL with Y71F, F73L, F87Y
B16: AH02913, prokaryotically expressed antibody product (back-mutation screening) (Fab, V domains shown)
VH: B1 VH
VL: B1 VL
B17: AH02922, prokaryotically expressed antibody product (back-mutation screening) (Fab, V domains shown)
VH: B1 VH with P9A, V20I, K38R, G44R, L72R, F95Y, A105V
VL: B1 VL with V44P, F73L, F87Y
B18: AH02915, prokaryotically expressed antibody product (back-mutation screening) (Fab, V domains shown)
VH: B1 VH with P9A, M81L, L83I, F95Y
VL: B1 VL with V44P, Y71F, F73L
B19: AH02923, prokaryotically expressed antibody product (back-mutation screening) (Fab, V domains shown)
VH: B1 VH with P9A, K38R, V68F, I70F, M81L, F95Y
VL: B1 VL with F87Y
B20: AH02919, prokaryotically expressed antibody product (back-mutation screening) (Fab, V domains shown)
VH: B1 VH with P9A, L72R, M81L, L83I
VL: B1 VL with F73L, F87Y

target: T1, OX40 on a functional cell line …; test: cell-based or functional assay

Row | Binder | IL-8 secretion by OX40 overexpressing functional cell line, EC50 [nM] | IL-8 secretion by OX40 overexpressing functional cell line, best-fit value Bottom | IL-8 secretion by OX40 overexpressing functional cell line, best-fit value LogEC50 | IL-8 secretion by OX40 overexpressing functional cell line, best-fit value Top
1 | B1 | 1.62 | 3950 | 0.209 | 24200
2 | B2 | 2.14 | 4420 | 0.329 | 19500
3 | B3 | 3 | 3590 | 0.476 | 24600
4 | B4 | 1.03 | 3060 | 0.0123 | 19000

target: T2, Recombinant human OX40-His protein; test: SPR (Biacore 8K), OX40-HIS coupled to chip, antibody as analyte, 1:1 binding model
Description: The chip surface was equilibrated with HBS-EP buffer at a flow rate of 10 μl/min for 5 min, and then a 1:1 mixture of “NHS+EDC” was injected at a flow rate of 10 μl/min for 100 sec to activate the chip. The antigen protein (OX40-HIS) diluted in 10 mM sodium acetate buffer was injected for about 180 sec at a flow rate of 10 μl/min for coupling, and finally ethanolamine was injected for 200 sec at a flow rate of 10 μl/min to block the surface.
Three pre-cycles were performed with the HBS-EP buffer as a sample to balance the chip to stabilize the baseline. A low concentration of antibody was injected at a flow rate of 30 μl/min for 200 sec, to allow the antigen to bind to the antibody, and then the buffer was injected at a flow rate of 30 μl/min for 400 sec for dissociation. 10 mM Gly-HCl pH2.0 was injected three times each for 30 sec at a flow rate of 30 μl/min for regeneration, to complete one cycle.
The antibody concentration was changed to carry out the cycle for measurement at a next gradient concentration until all gradient concentrations (2.5 nM, 5 nM, 10 nM, 20 nM, 40 nM, and […]) and the replicate (such as 20 nM) were tested. The experimental data was double subtracted (minus the background values of the control channel and zero concentration), and fitted to the “1:1 binding” model in the Biacore 8K evaluation software. Biacore 8K was used to determine the affinity of the antibody to the OX40-HIS recombinant protein.

Row | Binder | Kd [nM] | koff [s⁻¹] | kon [M⁻¹ s⁻¹]
5 | B5 | 2.4 | 0.000814 | 339000
6 | B6 | 2.83 | 0.00116 | 408000
7 | B1 | 1.76 | 0.00067 | 381000
8 | B2 | 1.34 | 0.000439 | 327000
9 | B7 | 2.22 | 0.00115 | 520000
10 | B3 | 2.46 | 0.000659 | 268000
11 | B8 | 3 | 0.00142 | 472000
12 | B9 | 1.36 | 0.00029 | 213000
13 | B10 | 2.6 | 0.00106 | 407000
14 | B4 | 2.09 | 0.000776 | 372000

Target: T3, Recombinant monkey OX-40 protein
Test: ELISA, plate coated with recombinant monkey OX-40 protein, antibody titrated

Row | Binder | EC50 [µg/mL]
15 | B5 | 0.0618
16 | B1 | 0.0353
17 | B2 | 0.0376
18 | B3 | 0.0323
19 | B4 | 0.0391

target: T2, Recombinant human OX40-His protein; test: ELISA, plate coated with recombinant human OX-40 protein, antibody titrated
Description: Recombinant human OX-40 protein and recombinant monkey OX-40 protein were respectively used to detect the cross-recognition ability of humanized monoclonal antibodies for human/monkey OX-40 protein.
The ELISA plate (Nunc) was coated with 100 μl/well of […] recombinant OX40-His protein in PBS at 4° C. overnight. The plate was washed with PBS-T (0.05% Tween) and blocked with 200 μl/well of PBST containing 1% BSA at 37° C. for 0.5 hr. Then the blocking buffer was discarded, 100 μl of 1000 ng/ml purified antibody was added to the first well, 3-fold serial dilutions were made, and a total of 11 test concentration gradients were given. Then the system was incubated for 1 hr at room temperature. The plate was washed three times with PBST and incubated with 100 μl/well of horseradish peroxidase-conjugated goat anti-human Fab fragment-IgG (Fab-specific) (GenScript) at 37° C. for 0.5 hr. The plate was washed 5 times with PBST, and then a TMB developing solution (GenScript) was added and incubated at room temperature for 15 min in the dark. The reaction was terminated by adding 50 μl of 1 M HCl stop solution (Sigma). The plate was read at 450 nm on a microplate reader.

Row | Binder | EC50 [µg/mL]
20 | B5 | 0.0138
21 | B1 | 0.0161
22 | B2 | 0.0161
23 | B3 | 0.0131
24 | B4 | 0.0143

target: T2, Recombinant human OX40-His protein; test: kinetic ranking (RU, 1:1 binding model), prokaryotically expressed antibody product as ligand, OX40-His as analyte

Row | Binder | Kd [nM] | koff [s⁻¹] | kon [M⁻¹ s⁻¹]
25 | B11 | 15.6 | 0.00511 | 328000
26 | B12 | 15.7 | 0.00384 | 245000
27 | B13 | 3.35 | 0.0013 | 388000
28 | B14 | 14.9 | 0.00439 | 295000
29 | B15 | 13.7 | 0.00396 | 288000
30 | B16 | 12.5 | 0.00425 | 339000
31 | B17 | 2.37 | 0.000534 | 225000
32 | B18 | 14.3 | 0.00307 | 215000
33 | B19 | 10.8 | 0.00344 | 317000
34 | B20 | 15.1 | 0.00505 | 335000
